Test results from patent US20240327505A1 (published 2024).

What was measured:
[1] = target: T1, SARS-CoV-2 spike S2 protein (SARS-CoV-2, UniProt P0DTC2 686-1213); test: BLI, as in Example 4
T1 construct: domain: S2

[2] = target: SARS-CoV-2 Wuhan-1 full-length Spike protein on pseudovirus (SARS-CoV-2, UniProt P0DTC2 14-1273); test: cell-based or functional assay
[3] = target: SARS-CoV-1 spike protein on pseudovirus (SARS-CoV-1, UniProt P59594 14-1255); test: cell-based or functional assay
[4] = target: SARS-CoV-2 spike protein on fully infectious (replication-competent) SARS-CoV-2 virus (SARS-CoV-2, UniProt P0DTC2 14-1273); test: cell-based or functional assay
[5] = target: SARS-CoV-2 Envelope (E) protein (SARS-CoV-2, UniProt P0DTC4 1-75); test: ELISA, Envelope
[6] = target: SARS-CoV-2 Spike (S) trimer (SARS-CoV-2, UniProt P0DTC2 16-1213); test: ELISA on coated S trimer, 1:50
SARS-CoV-2 S2 protein = SARS-CoV-2 S2 protein (SARS-CoV-2, UniProt P0DTC2 686-1213)
[7] = target: SARS-CoV-2 Nucleocapsid (N) protein (SARS-CoV-2, UniProt P0DTC9 1-419)

B1: AB-009271 (antibody, V domains shown)
VH: EVQLVESGGGLIQPGGSLRLSCAASGFIVSSNYMSWVRQAPGKGLEWVSVIYSGGSTYYADSVKGRFTISRDNSKNTLYLQMNSLRAEDTAVYYCARDYGDFYFDYWGQGTLVTVSS
VL: EIVMTQSPATLSVSPGERATLSCRASQSVSSNLAWYQQKPGQAPRLLIYGASTRATGIPARFSGSGSGTEFTLTISSLQSEDFAVYYCQQYYNWPRTFGQGTKVEIK
- binding result [1]: no binding
- Pseudovirus Neturalization [2]: 0.058 µg/mL
- Pseudovirus Neturalization [3]: > 50 µg/mL
- Neutralization (Infectious virus; (µg/mL)) [4]: 0.181 µg/mL

B2: AB-009357 (antibody, V domains shown)
VH: QLQLQESGPGLVKPSETLSLTCTVSGGSISSSSYYWGWIRQPPGKGLEWIGSIYYSGSTYYNPSLKSRVTISVDTSKNQFSLKLSSVTAADTAVYYCARHPLSSITIFGVVKREYYFDYWGQGTLVTVSS
VL: DIQMTQSPSSVSASVGDRVTITCRASQGISSWLAWYQQKPGKAPKLLIYAASSLQSGVPSRFSGSGSGTDFTLTISSLQPEDFATYYCQQANSFPLLFGGGTKVEIK
- OD 450 nm [5]: 0.221 OD
- OD 450 nm [6]: 2.77 OD

B3: AB-009335 (antibody, V domains shown)
VH: QVQLQESGPGLVKPSETLSLTCTVSGGSISSHYWSWIRQPPGKGLEWIGYIYYSGSTNYNPSLKSRVTISVDTSKNQFSLKLSSVTAADTAVYYCARVRREWLAAYFYYGMDVWGQGTTVTVSS
VL: DIQMTQSPSSLSASVGDRVTITCRASQGISNYLAWYQQKPGKVPKLLIYAASTLQSGVPSRFSGSGSGTDFTLTISSLQPEDVATYYCQKYNSAPLTFGGGTKVEIK
- OD 450 nm [5]: 0.4 OD
- OD 450 nm [6]: 1.03 OD

B4: AB-009627 (antibody, V domains shown)
VH: QVQLQQWGAGLLKPSETLSLTCAVYGGSFSGYYWSWIRQPPGKGLEWIGEINHSGSTNYNPSLKSRVTISVDTSKNQFSLKLSSVTAADTAVFYCARGGYSSSWYGEKYWFDPWGQGTLVTVSS
VL: QSALTQPRSVSGSPGQSVTISCTGTSSDVGGYNYVSWYQQHPGKAPKLMIYDVSKRPSGVPDRFSGSKSGNTASLTISGLQAEDEADYYCCSYAGSPYVFGTGTKVTVL
- Kd (SARS-CoV-2 S2 protein): 0.246 nM
- koff (SARS-CoV-2 S2 protein): 2.85e-07 s⁻¹
- kon (SARS-CoV-2 S2 protein): 1160 M⁻¹ s⁻¹

B5: AB-009620 (antibody, V domains shown)
VH: QITLKESGPTLVKPTQTLTLTCTFSGFSLSTSGVGVGWIRQPPGKALEWLALIYWDDDKRYSPSLKSRLTITKDTSKNQVVLTMTNMDPVDTATYYCAHHEVATVFDYWGQGTLVTVSS
VL: QSALTQPASVSGSPGQSITISCTGTSSDVGAYNYVSWYQQHPGKAPKLMIYEVSNRPSGVSNRFSGSKSGNTASLTISGLQAEDEADYYCSSYTSSSTVFGGGTKLTVL
- binding result [1]: no binding
- Pseudovirus Neturalization [2]: 1.04 µg/mL
- Pseudovirus Neturalization [3]: > 50 µg/mL
- Neutralization (Infectious virus; (µg/mL)) [4]: 13.3 µg/mL

B6: AB-009734 (antibody, V domains shown)
VH: QVHLVQSGAEVKTPGASVRVSCKASGYTFTSHYMHWVRQAPGQGLEWMGLINPSGSGTAYPQHFQGRVTMTRDTSTTTDYMDLSSLRSEDTAMYFCARMERSGAFDLWGQGTMVTVSS
VL: EIVLTQSPGTLSLSPGERATLSCRASQTISSRYLAWYYQKPGQAPRLLIQGSSIRATGIPDRFSGSGSGTDFTLTISRLEPEDFAVYYCQHYGSSPPMYTFGQGTKLEIK
- Kd (SARS-CoV-2 S2 protein): 12.4 nM
- koff (SARS-CoV-2 S2 protein): 0.000103 s⁻¹
- kon (SARS-CoV-2 S2 protein): 8280 M⁻¹ s⁻¹
- Kd [7]: 22.2 nM
- koff [7]: 0.000979 s⁻¹
- kon [7]: 44000 M⁻¹ s⁻¹

B7: AB-009610 (antibody, V domains shown)
VH: QVQLVQSGAEVKKPGSSVKVSCKASGGTFSNYAISWVRQAPGQGLEWMGRIIPILGIANYAQKFQGRVTITADKSTSTAYMELSSLRSEDTAVYYCATTPYYYDSSGYYLDYWGQGTLVTVSS
VL: not shown
- binding result [1]: no binding
- Pseudovirus Neturalization [2]: 6.77 µg/mL
- Pseudovirus Neturalization [3]: > 50 µg/mL
- Neutralization (Infectious virus; (µg/mL)) [4]: 6.25 µg/mL
